Data from patent publication US6586236.

Biological target: goat anti-mouse kappa light chain IgG (Southern Biotech)
Assay: phage panning of 1:1 W100/R100 mixture on coated wells, oligonucleotide hybridization of plaque lifts

“DB3 R100 VH/κ-gpVIII fusion polypeptide displayed on JC-M13-88 phage (from UniProt P69541 24-73) (scFv)” showed a % DB3 R100 variant in DB3 phage eluted, 2 rounds of panning of 82.1% and a % DB3 R100 variant in DB3 phage eluted, 3 rounds of panning of 79.2%.
